From patent US20200199244A1

How the values were obtained:
[1] = target: biotinylated human CD40 (human) (UniProt P25942); assay: SPR, BIAcore 3000 COINJECT over biotinylated human CD40; mixture after first injection; competitor G28-5 Fab
[2] = target: biotinylated human CD40 (human) (UniProt P25942); assay: SPR, BIAcore 3000, Fab injected alone over biotinylated human CD40 on SA chip
[3] = target: biotinylated human CD40 (human) (UniProt P25942); assay: SPR, BIAcore 3000 COINJECT over biotinylated human CD40; mixture after first injection; competitor BMS3h-56-5
[4] = target: biotinylated human CD40 (human) (UniProt P25942); assay: SPR, BIAcore 3000 COINJECT over biotinylated human CD40; mixture after first injection; competitor BMS3h-193-12
[5] = target: biotinylated human CD40 (human) (UniProt P25942); assay: SPR, BIAcore 3000, 1 µM Fab alone over biotinylated human CD40
[6] = target: biotinylated human CD40 (human) (UniProt P25942); assay: SPR, BIAcore 3000 COINJECT over biotinylated human CD40; mixture after first injection; competitor Chi220 Fab

Chain of biotinylated human CD40 (human) (P25942 21-193 limits assumed): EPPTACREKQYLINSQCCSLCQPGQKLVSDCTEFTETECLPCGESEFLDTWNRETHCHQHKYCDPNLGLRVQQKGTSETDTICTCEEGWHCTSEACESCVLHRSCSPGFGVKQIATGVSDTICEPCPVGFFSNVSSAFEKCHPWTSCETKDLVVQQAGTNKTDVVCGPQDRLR

Row | Second Injection (% of single dAb/Fab RU) [1] [%] | RU first dAb/Fab alone [2] [RU] | Second Injection (% of single dAb/Fab RU) [3] [%] | Second Injection (% of single dAb/Fab RU) [4] [%] | Single dAb RU [5] [RU] | Second Injection (% of single dAb/Fab RU) [6] [%] | Substance
1 | 39 | 1090 | 98 | 98 |  |  | Chi220 Fab'
2 |  | 730 | 94 | 93 | 730 | 11 | G28-5 Fab'
